No end group written: not given here.
Legend:
[1] = format: physicochemical; conditions: pH 7.4
Method: The lipophilicities of the ^99mTc-labeled complexes were evaluated by the distribution coefficient. The method for determining the distribution coefficient was as follows: 0.1 mL of the radiolabeled complex (3.7 MBq) was mixed with 0.9 mL of phosphate buffer (0.025 mol/L, pH 7.4) and 1 mL of n-octanol in a 5 mL centrifuge tube. The mixture was shaken on a vortex mixer at room temperature for 3 min and centrifuged at 5000 r/min for 5 min. Aliquots of 0.1 mL of both n-octanol and PBS were collected, and the radioactivity was determined with a γ-counter. The distribution coefficient was calculated as follows: Log D = lg[(counts per minute in n-octanol/counts per minute in PBS)]. Each group of measurements was carried out five times in parallel. The final results are expressed as the log D ± SD.

[2] = system: S. aureus-infected mice; parameters: species or system female Kunming mice; conditions: mouse, in vivo
Method: Bacterial infection mouse models were constructed as follows: S. aureus (ATCC 25923) was cultured in a liquid medium at 37 °C for approximately 24 h, washed with PBS (pH 7.4) and diluted to obtain a suspension of 1 × 10^8 CFU/mL. […] The mice were sacrificed with isoflurane anesthesia at 120 min postinjection. […] To evaluate the metabolic properties of [^99mTc]Tc-CN5UBI 29-41, biodistribution studies were carried out in mice infected with S. aureus at 30, 120 and 240 min.

Substance	Log D ± SD, [^99mTc][Tc(Ⅴ)N]^2+ Core [1]	Abscess/Blood ratio [2]	Abscess/Muscle ratio (target-to-nontarget ratio) [2]	Log D ± SD, [^99mTc][Tc(Ⅰ)]^+ Core [1]
[^99mTc]TcN-CN9UBI 29-41: ^99mTc complex of ligand CN9UBI 29-41 with the [^99mTc][Tc(V)N]^2+ core (TGRAKRRMQYNRR; also: CN9 chelator, position not given here, 99mTc complex with [99mTc][Tc(V)N]2+ core; UniProt P62861 103-115, looked up, fragment)	−2.41 ± 0.03	0.70 ± 0.29	2.79 ± 0.82	
[^99mTc]TcN-CN5UBI 29-41: ^99mTc complex of ligand CN5UBI 29-41 with the [^99mTc][Tc(V)N]^2+ core (TGRAKRRMQYNRR; also: CN5 chelator, position not given here, 99mTc complex with [99mTc][Tc(V)N]2+ core; UniProt P62861 103-115, looked up, fragment)	−2.71 ± 0.03	0.69 ± 0.22	2.10 ± 0.80	
[^99mTc]Tc(CO)3-CN7UBI 29-41: ^99mTc complex of ligand CN7UBI 29-41 with the [^99mTc][Tc(I)(CO)3(H2O)3]^+ core (TGRAKRRMQYNRR; also: CN7 chelator, position not given here, 99mTc(CO)3 complex; UniProt P62861 103-115, looked up, fragment)		0.69 ± 0.08	2.43 ± 0.49	
[^99mTc]Tc(CO)3-CN5UBI 29-41: ^99mTc complex of ligand CN5UBI 29-41 with the [^99mTc][Tc(I)(CO)3(H2O)3]^+ core (TGRAKRRMQYNRR; also: CN5 chelator, position not given here, 99mTc(CO)3 complex; UniProt P62861 103-115, looked up, fragment)		0.67 ± 0.15	2.49 ± 0.65	
[^99mTc]TcN-CN8UBI 29-41: ^99mTc complex of ligand CN8UBI 29-41 with the [^99mTc][Tc(V)N]^2+ core (TGRAKRRMQYNRR; also: CN8 chelator, position not given here, 99mTc complex with [99mTc][Tc(V)N]2+ core; UniProt P62861 103-115, looked up, fragment)	−2.55 ± 0.03	0.72 ± 0.13	2.81 ± 0.55	
[^99mTc]Tc-CN6UBI 29-41: ^99mTc complex of ligand CN6UBI 29-41 with the [^99mTc]Tc(I)^+ core (TGRAKRRMQYNRR; also: CN6 chelator, position not given here, 99mTc(I) complex; UniProt P62861 103-115, looked up, fragment)		0.75 ± 0.10	3.48 ± 0.70	−2.62 ± 0.03
[^99mTc]Tc(CO)3-CN6UBI 29-41: ^99mTc complex of ligand CN6UBI 29-41 with the [^99mTc][Tc(I)(CO)3(H2O)3]^+ core (TGRAKRRMQYNRR; also: CN6 chelator, position not given here, 99mTc(CO)3 complex; UniProt P62861 103-115, looked up, fragment)		0.73 ± 0.19	2.48 ± 0.45	
[^99mTc]TcN-CN7UBI 29-41: ^99mTc complex of ligand CN7UBI 29-41 with the [^99mTc][Tc(V)N]^2+ core (TGRAKRRMQYNRR; also: CN7 chelator, position not given here, 99mTc complex with [99mTc][Tc(V)N]2+ core; UniProt P62861 103-115, looked up, fragment)	−2.58 ± 0.04	0.58 ± 0.12	2.47 ± 0.47	
[^99mTc]Tc(CO)3-CN8UBI 29-41: ^99mTc complex of ligand CN8UBI 29-41 with the [^99mTc][Tc(I)(CO)3(H2O)3]^+ core (TGRAKRRMQYNRR; also: CN8 chelator, position not given here, 99mTc(CO)3 complex; UniProt P62861 103-115, looked up, fragment)		0.64 ± 0.11	2.42 ± 0.37	
[^99mTc]Tc-CN9UBI 29-41: ^99mTc complex of ligand CN9UBI 29-41 with the [^99mTc]Tc(I)^+ core (TGRAKRRMQYNRR; also: CN9 chelator, position not given here, 99mTc complex with [99mTc]Tc(I)+ core; UniProt P62861 103-115, looked up, fragment)		0.69 ± 0.04	2.62 ± 0.42	−2.52 ± 0.01
[^99mTc]TcN-CN6UBI 29-41: ^99mTc complex of ligand CN6UBI 29-41 with the [^99mTc][Tc(V)N]^2+ core (TGRAKRRMQYNRR; also: CN6 chelator, position not given here, 99mTc complex with [99mTc][Tc(V)N]2+ core; UniProt P62861 103-115, looked up, fragment)	−2.65 ± 0.03	0.70 ± 0.15	3.32 ± 0.99	
[^99mTc]Tc-CN8UBI 29-41: ^99mTc complex of ligand CN8UBI 29-41 with the [^99mTc]Tc(I)^+ core (TGRAKRRMQYNRR; also: CN8 chelator, position not given here, 99mTc complex with [99mTc]Tc(I)+ core; UniProt P62861 103-115, looked up, fragment)		0.66 ± 0.16	2.64 ± 0.65	−2.54 ± 0.01
[^99mTc]Tc(CO)3-CN9UBI 29-41: ^99mTc complex of ligand CN9UBI 29-41 with the [^99mTc][Tc(I)(CO)3(H2O)3]^+ core (TGRAKRRMQYNRR; also: CN9 chelator, position not given here, 99mTc(CO)3 complex; UniProt P62861 103-115, looked up, fragment)		0.75 ± 0.12	2.60 ± 0.68	
[^99mTc]Tc-CN7UBI 29-41: ^99mTc complex of ligand CN7UBI 29-41 with the [^99mTc]Tc(I)^+ core (TGRAKRRMQYNRR; also: CN7 chelator, position not given here, 99mTc(I) complex; UniProt P62861 103-115, looked up, fragment)		0.56 ± 0.09	2.52 ± 0.56	−2.57 ± 0.03

Reference: publication PMC10816394, “Radiosynthesis and Bioevaluation of ^99mTc-Labeled Isocyanide Ubiquicidin 29-41 Derivatives as Potential Agents for Bacterial Infection Imaging” (International Journal of Molecular Sciences, 2024)
